This assay addresses Bombyx mori ribosomal protein RPL12 (Bombyx mori (endogenous in BmN)). The assay can be described thus: Western blot of total cell proteins; total proteins of BmN cells (mock, control siRNA, BmRPL12 siRNA), anti-RPL12 polyclonal antibody; monomer and dimer bands. On the technique in general: A western blot detects proteins with antibodies after separation by electrophoresis.

Consider “Bombyx mori ribosomal protein RPL12 (natural protein)”, for which the stoichiometry N (commonly the number of molecules, sites or subunits per partner or assembly) was 2.

Values taken from PMC11856044.
